# Experimental data as given in patent publication US20260234247A1 (published 2026).
# Where a chain is given by its changes, count along the chain named.
# B1: LK-RB1-20 (antibody, human IgG4 S228P, kappa)
# heavy: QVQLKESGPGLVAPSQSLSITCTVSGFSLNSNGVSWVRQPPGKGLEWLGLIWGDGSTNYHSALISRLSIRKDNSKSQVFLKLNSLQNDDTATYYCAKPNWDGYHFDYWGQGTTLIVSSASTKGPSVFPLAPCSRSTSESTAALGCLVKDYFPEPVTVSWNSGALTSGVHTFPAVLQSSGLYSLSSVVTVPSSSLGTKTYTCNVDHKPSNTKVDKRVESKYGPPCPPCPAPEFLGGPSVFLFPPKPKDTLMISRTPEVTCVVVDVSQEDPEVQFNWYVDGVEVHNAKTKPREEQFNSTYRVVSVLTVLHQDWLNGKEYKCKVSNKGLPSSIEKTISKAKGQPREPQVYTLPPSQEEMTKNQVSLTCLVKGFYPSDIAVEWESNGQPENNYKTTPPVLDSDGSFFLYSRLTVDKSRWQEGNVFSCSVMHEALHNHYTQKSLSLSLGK
# light: DIQMNQSPSSLSASLGDTITITCHASQNIDFWLSWYQQKPGNIPKLLIYKASNLHTGVPSRFSGSGSGTGFTLTISSLQPEDIATYYCQQGQSYPLTFGAGTKLELKRTVAAPSVFIFPPSDEQLKSGTASVVCLLNNFYPREAKVQWKVDNALQSGNSQESVTEQDSKDSTYSLSSTLTLSKADYEKHKVYACEVTHQGLSSPVTKSFNRGEC
# B2: LK-RB1-21 (antibody, human IgG4 S228P, kappa, V domains shown)
# VH: QVQLQQPGAELVKPGASVKMSCKASGYIFTDYWTTWVKQRPGQGLEWIGDIYPVSGSTNYNEKFKNKATLTVDTSSSTAYMQLSSLTSEDSAVYYCARALGRRYYFDYWGQGTTLTVSS
# VL: DIVMTQSHKFMSTSIGDRVSITCKASQDVSTAVAWCQQKPGQSPKSLIYSASYRYTGIPDRFTGSGSGTDFTFTISSVQAEDLAVYYCQQHYTNPVTFGTGTKLELKR
# B3: LK-RB1-22 (antibody, human IgG4 S228P, kappa, V domains shown)
# VH: QVQLKESGPGLVAPSQSLSITCTVSGFSLTSYGVSWVRQPPGKGLEWLGIIWGDGNTNYHSALTSRLSISKDNSKSQVFLKLNSLRTDDTATYYCAKPHWDHYSMDYWGQGTSVTVSS
# VL: DIQMTQTTSSLSASLGDRVTISCRASQDISNFLNWYQQKPDGTVKLLIYYTSRLHSGAPSRFSGSGSGTDYSLTISNLDQEDIATYFCQQGNTLPLTFGAGTKLELKR
# B4: LK-RB1-23 (antibody, human IgG4 S228P, kappa, V domains shown)
# VH: QVQLQQTGAELVRPGSSVKLSCKASGYTFTNYWMDWVKQRPGQGLEWIGNIHPFGNETHYNQKFKDKATLTVDKSSSTAYMQLSSLTSEDSAVYYCARGLLLYFDVWGTGTTVTVSS
# VL: DIQMTQSPASQSVSVGETVTITCRASENIYSNLAWYQQKQGKSPQLLVYGATNLADGVSLRFSGSGSGTQYSLKINSLQSEDFGSYYCQHFWGIPWTFGGGTKLEIKR
# B5: LK-RB1-24 (antibody, human IgG4 S228P, kappa, V domains shown)
# VH: QVQLQQPGAELVNPGTSVNLSCKASGYTFTGYWMHWVKQRPGQGLEWIGMIHPNNGGTIYNERFNGKATLTVDRSSTTAYIQLSSLTSEDSAVYYCAYWDLDYWGQGTTLTVSS
# VL: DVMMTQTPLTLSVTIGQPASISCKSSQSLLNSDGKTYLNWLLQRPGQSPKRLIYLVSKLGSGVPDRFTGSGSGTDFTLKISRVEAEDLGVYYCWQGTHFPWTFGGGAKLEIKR
# B6: LK-RB1-25 (antibody, human IgG4 S228P, kappa, V domains shown)
# VH: QIQLVQSGPELKKPGETVKISCKASGYTFTSYGMNWMKQAPGEGLKWMGWINTYSGVPTYADDFKGRFAFSLETSATTVYLQINNLKNEDKATYFCARRGRDSVVGHFDVWGTGTTVTVSS
# VL: DIVMTQSHKFMSTSVGDRVSITCKASQDVNTAVAWYQQKPGQSPKLLIYWASTRHTGVPDRFTGSGSGTDFTLTISSVQAEDLALYYCQQHYTIPFTFGSGTKLEIKR
# B7: LK-RB1-33 (antibody, human IgG4 S228P, kappa, V domains shown)
# VH: B6 VH with E16D, M37V, A61G, T77S, V79A, K87E, K91T
# VL: B6 VL with K103R
# B8: LK-RB1-26 (antibody, human IgG4 S228P, kappa, V domains shown)
# VH: B3 VH with N56S, T64I, R86Q, H99N, H102Y, S104A
# VL: B3 VL with V44F, Y49S, R53T, A58V, D79E, I83V, E105A
# B9: LK-RB1-27 (antibody, human IgG4 S228P, kappa, V domains shown)
# VH: QVQLQQSGPELVKPGASVRMSCKASGYTFTSHYIHWMKQRPGQGLEWIGWIYPGDGHTKYHEKFKDRATLTADTSSITAYMRLSSLTSEDSAIYYCVYYSDSWFPYWGQGTLVTVSA
# VL: B4 VL with Q11L, Q45H, G50A, S59P, L60S, S85N, I94S
# B10: LK-RB1-29 (antibody, human IgG4 S228P, kappa, V domains shown)
# VH: QVQLKESGPGLVAPSQNLAITCTVSGFSLTNSGVSWVRQSPGKGLEWLGIIWGDGNTNYHSALISRLSISKDNSKSQVFLKLNSLQTDDTGTYYCAKPNWDYYALDYWGQGTSVTVSS
# VL: DIQMTQTASSLFASLGDRVTISCRASQDISNYLNWYQQKPDGSIKLLISYTSRLHSGVPSRFSGSGSGTDYSLSISNLEQEDIATYFCQQGISLPCTFGGGTKLEVNR
# B11: LK-RB1-30 (antibody, human IgG4 S228P, kappa, V domains shown)
# VH: B3 VH with V37I, I50V, T64I, R86Q, H99S, H102Y, S104A
# VL: VIQMTQTTSSLSASLGDRVTISCRASQDISNYVNWYQQRPDGTVKLLISYTSRLHSGVPSRFSGSGSGTDYSLTITNLEQEDIATYFCQQGITLPCTFGGGTKLEINR
# B12: LK-RB1-34 (antibody, human IgG4 S228P, kappa, V domains shown)
# VH: QVQLQQSGAELVKPGASVKLSCKASGYTFTEYTIHWVKQRSGQGLEWIGWFYPGSDSIKYNEKFKDKATLTADKSSSTVYMELSRLTSEDSAVYFCSRHEGPYFTSQYYFDYWGQGTTLTVSS
# VL: DILLTQSPAILSVSPGERVSFSCRASRYIGTSIHWYQQRTNGSPRLLIKYASESISGIPSRFSGSGSGTDFTLSINSVESEDIADYYCQQSNTWPLTFGAGTKLELKR
# B13: LK-RB1-39 (antibody, human IgG4 S228P, kappa, V domains shown)
# VH: EVQLQQSGAELVRPGASVKLSCTASGFNIKDDYVHWVNQRPEQGLEWIGWIDPENGDTGYASKFQDKATITADTSSNTAYLHLSSLTSEDTAVYYCTTTRWTGSYWGQGTTLTVSS
# VL: QIVLTQSPAIMSASPGEKVTITCSASSSVNYMHWFQQKPGSSPKLWIYSTANLASGVPARFSGSGSGTSYSLTISRMEAEDAATYYCQQRSSYPPTWTFGGGTKLEIKR
# B14: LK-RB1-42 (antibody, human IgG4 S228P, kappa, V domains shown)
# VH: QVQLQQPGAELVKPGTSVKLSCKASGYSFISYWVYWVKQRPGQGLEWIGMIHPNSGSTNFNEKFRYKATLTVDKSSSTAYIQLSSLTSEDSAVYYCGRSDDGYPYHAMDSWGQGTSVTVSS
# VL: DIVMTQSQKFMSTSVGDRVSVTCKASQNVGTNVAWYQQKPGQSPKALIYSASYRFSGVPDRFTGSGSGTDFTLTIGNVQSEDLAEYFCHQYKNYPLTFGGGTKLEIKR
# B15: LK-RB1-47 (antibody, human IgG4 S228P, kappa, V domains shown)
# VH: QIQLVQSGPELKKPGETVKISCKASGYTFTTYGMSWVKQAPGKGLKWMGWINTYSGVPTYTDDFKGRFAFSVETSASTAYLQINNLKNEDTATYFCARRERDFYGNIFFPYWGQGSLVTVSA
# VL: B3 VL with F32Y, L54I, A58V, Y71F, N92H, L96W, A100G, L104V, L106I
# B16: LK-RB1-55 (antibody, human IgG4 S228P, kappa, V domains shown)
# VH: EVKLVESGGGLVQPGGSLKLSCAASGFTFSDYYMYWVRQTPEKRLEWVAYISNGGDITFYPDTVKGRFTISRDNARSTLYLQMSRLKSEDTAIYYCASATTEVGAMDHWGQGTSVTVSS
# VL: DIVMTQSQKFMSTTVGDRVSITCKASQNVGTAVAWYQQKPGKSPKLLIYAASNRYTGVPDRFTGSGSGTDFTLTISNMQSEDLADYFCQQYSSYRTFGGGTNLEIKR
# B17: LK-RB1-48 (antibody, human IgG4 S228P, kappa, V domains shown)
# VH: B16 VH with D56G, T58S, R76K, S77N, T101K, H108Y
# VL: B16 VL with M11L, K42Q, L46I, A50S, N102K
# B18: LK-RB1-52 (antibody, human IgG4 S228P, kappa, V domains shown)
# VH: B16 VH with T28I, F59Y, N74I, S77N, Y80F, S84G, I93M
# VL: B16 VL with K42Q, S92R
# B19: LK-RB1-57 (antibody, human IgG4 S228P, kappa, V domains shown)
# VH: B16 VH with M83T
# VL: B16 VL with M78V, N102S
# B20: LK-RB1-49 (antibody, human IgG4 S228P, kappa, V domains shown)
# VH: QIQLVQSGPELKKPGETVKISCKASGYTFTTYGMSWVKQAPGKGLKWMGWINTYSGVPTYADDFKGRFAFSLETSGSTAYLQISNLKNEDTATYFCSRLFRSWDSYAMDYWGQGTSVTVSS
# VL: DIVMTQSQKFMSATVGDRVSITCKASQNVGTAVAWYQQKPGQSPKLLIYSPSNRYTGVPDRFTGSGSGTHFTLTINNMQSEDLADYFCQQYSTYPLTFGAGTKLELNR
# Biological target: T1, human LILRB1 on CHOK1 cells (human, UniProt Q8NHL6 24-650)
# T1 construct: whole, on cells; also called CHOK1-hLILRB1; CHOK1-LILRB1
# Assay: FACS binding, CHOK1-hLILRB1 cells
# T1 sequence (Q8NHL6 24-650): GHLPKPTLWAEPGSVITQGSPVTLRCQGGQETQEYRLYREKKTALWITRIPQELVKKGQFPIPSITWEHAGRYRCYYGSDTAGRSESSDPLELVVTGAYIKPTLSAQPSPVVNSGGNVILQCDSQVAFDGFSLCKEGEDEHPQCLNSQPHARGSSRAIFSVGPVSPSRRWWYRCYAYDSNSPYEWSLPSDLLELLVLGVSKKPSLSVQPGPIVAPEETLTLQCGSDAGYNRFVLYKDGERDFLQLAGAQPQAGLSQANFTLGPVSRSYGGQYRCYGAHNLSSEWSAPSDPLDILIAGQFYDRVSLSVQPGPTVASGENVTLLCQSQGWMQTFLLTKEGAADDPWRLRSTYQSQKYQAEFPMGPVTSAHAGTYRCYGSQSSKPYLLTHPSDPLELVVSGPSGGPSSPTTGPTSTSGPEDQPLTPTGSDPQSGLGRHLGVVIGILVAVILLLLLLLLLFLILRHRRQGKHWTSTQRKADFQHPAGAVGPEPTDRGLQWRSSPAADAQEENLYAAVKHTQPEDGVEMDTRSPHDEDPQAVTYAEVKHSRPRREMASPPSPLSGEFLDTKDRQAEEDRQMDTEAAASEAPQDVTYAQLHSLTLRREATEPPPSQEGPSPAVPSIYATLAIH
row,Binder,EC50 [nM]
1,B1,0.85
2,B2,1.88
3,B3,1.76
4,B4,0.73
5,B5,1.48
6,B6,1.07
7,B7,1.13
8,B8,0.51
9,B9,0.71
10,B10,2.38
11,B11,1.06
12,B12,1.56
13,B13,0.77
14,B14,0.89
15,B15,1.13
16,B16,1.68
17,B17,1.06
18,B18,1.8
19,B19,1.78
20,B20,2.05

# Biological target: T1, human LILRB1 on CHOK1 cells
# Assay: cell-based RBA (FACS): blocking of HLA-G binding to CHOK1-hLILRB1 cells
Binder,EC50 [nM],Top Inhibition (%)
B1,0.52,97.4
B2,0.53,98.1
B3,1.4,100
B4,0.56,95.3
B5,9.07,64.8
B6,0.62,98.1
B7,1.38,92.7
B8,0.69,99.6
B9,0.9,98.7
B10,2.93,93.3
B11,0.7,95.6
B12,3.69,21.7
B13,0.68,95.7
B14,4.5,62.2
B15,1.59,99
B16,1.26,92.6
B17,1,86.7
B18,2.25,89.7
B19,1.67,90
B20,2.32,91.4

# Biological target: T2, human LILRB2 on CHOK1 cells (human, UniProt Q8N423 22-597)
# T2 construct: whole, on cells; also called CHOK1-hLILRB2; CHOK1-LILRB2
# Assay: FACS binding, CHOK1-hLILRB2 cells
# T2 sequence (Q8N423 22-597): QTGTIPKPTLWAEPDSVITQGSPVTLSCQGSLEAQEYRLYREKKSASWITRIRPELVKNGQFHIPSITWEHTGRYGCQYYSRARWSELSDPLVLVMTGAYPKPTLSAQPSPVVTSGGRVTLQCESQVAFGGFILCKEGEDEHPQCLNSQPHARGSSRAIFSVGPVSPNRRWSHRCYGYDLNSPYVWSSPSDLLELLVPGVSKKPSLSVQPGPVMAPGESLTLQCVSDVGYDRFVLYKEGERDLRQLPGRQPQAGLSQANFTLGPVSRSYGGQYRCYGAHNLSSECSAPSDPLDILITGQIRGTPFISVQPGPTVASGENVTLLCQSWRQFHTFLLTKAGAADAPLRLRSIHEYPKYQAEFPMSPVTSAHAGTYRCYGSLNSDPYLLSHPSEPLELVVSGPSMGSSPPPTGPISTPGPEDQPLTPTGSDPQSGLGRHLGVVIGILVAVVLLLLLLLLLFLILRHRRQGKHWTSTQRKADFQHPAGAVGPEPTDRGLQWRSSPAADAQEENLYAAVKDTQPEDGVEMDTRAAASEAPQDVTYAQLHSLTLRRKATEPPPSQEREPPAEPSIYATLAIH
Binder,binding result,EC50 [nM]
B1,no binding,
B2,no binding,
B3,no binding,
B4,no binding,
B5,,1.04
B6,no binding,
B7,no binding,
B8,no binding,
B9,,4.95
B10,no binding,
B11,no binding,
B12,no binding,
B13,,0.17
B14,no binding,
B15,no binding,
B16,no binding,
B17,no binding,
B18,no binding,
B19,no binding,
B20,no binding,
